Results reported in US20200385441A1 (TECHNION RESEARCH AND DEVELOPMENT FOUNDATION, published 2020).

Biological target: T1, human Melanoma-associated Chondroitin Sulfate Proteoglycan (MCSP) (human, UniProt Q6UVK1 30-2322)
T1 construct: whole, on cells; also called CSPG4; NG2
Assay: flow cytometry on B16F10-MCSP (C25) cells, detected with Strep-PE or fold-specific anti-H-2K antibody

T1 sequence (Q6UVK1 30-2322): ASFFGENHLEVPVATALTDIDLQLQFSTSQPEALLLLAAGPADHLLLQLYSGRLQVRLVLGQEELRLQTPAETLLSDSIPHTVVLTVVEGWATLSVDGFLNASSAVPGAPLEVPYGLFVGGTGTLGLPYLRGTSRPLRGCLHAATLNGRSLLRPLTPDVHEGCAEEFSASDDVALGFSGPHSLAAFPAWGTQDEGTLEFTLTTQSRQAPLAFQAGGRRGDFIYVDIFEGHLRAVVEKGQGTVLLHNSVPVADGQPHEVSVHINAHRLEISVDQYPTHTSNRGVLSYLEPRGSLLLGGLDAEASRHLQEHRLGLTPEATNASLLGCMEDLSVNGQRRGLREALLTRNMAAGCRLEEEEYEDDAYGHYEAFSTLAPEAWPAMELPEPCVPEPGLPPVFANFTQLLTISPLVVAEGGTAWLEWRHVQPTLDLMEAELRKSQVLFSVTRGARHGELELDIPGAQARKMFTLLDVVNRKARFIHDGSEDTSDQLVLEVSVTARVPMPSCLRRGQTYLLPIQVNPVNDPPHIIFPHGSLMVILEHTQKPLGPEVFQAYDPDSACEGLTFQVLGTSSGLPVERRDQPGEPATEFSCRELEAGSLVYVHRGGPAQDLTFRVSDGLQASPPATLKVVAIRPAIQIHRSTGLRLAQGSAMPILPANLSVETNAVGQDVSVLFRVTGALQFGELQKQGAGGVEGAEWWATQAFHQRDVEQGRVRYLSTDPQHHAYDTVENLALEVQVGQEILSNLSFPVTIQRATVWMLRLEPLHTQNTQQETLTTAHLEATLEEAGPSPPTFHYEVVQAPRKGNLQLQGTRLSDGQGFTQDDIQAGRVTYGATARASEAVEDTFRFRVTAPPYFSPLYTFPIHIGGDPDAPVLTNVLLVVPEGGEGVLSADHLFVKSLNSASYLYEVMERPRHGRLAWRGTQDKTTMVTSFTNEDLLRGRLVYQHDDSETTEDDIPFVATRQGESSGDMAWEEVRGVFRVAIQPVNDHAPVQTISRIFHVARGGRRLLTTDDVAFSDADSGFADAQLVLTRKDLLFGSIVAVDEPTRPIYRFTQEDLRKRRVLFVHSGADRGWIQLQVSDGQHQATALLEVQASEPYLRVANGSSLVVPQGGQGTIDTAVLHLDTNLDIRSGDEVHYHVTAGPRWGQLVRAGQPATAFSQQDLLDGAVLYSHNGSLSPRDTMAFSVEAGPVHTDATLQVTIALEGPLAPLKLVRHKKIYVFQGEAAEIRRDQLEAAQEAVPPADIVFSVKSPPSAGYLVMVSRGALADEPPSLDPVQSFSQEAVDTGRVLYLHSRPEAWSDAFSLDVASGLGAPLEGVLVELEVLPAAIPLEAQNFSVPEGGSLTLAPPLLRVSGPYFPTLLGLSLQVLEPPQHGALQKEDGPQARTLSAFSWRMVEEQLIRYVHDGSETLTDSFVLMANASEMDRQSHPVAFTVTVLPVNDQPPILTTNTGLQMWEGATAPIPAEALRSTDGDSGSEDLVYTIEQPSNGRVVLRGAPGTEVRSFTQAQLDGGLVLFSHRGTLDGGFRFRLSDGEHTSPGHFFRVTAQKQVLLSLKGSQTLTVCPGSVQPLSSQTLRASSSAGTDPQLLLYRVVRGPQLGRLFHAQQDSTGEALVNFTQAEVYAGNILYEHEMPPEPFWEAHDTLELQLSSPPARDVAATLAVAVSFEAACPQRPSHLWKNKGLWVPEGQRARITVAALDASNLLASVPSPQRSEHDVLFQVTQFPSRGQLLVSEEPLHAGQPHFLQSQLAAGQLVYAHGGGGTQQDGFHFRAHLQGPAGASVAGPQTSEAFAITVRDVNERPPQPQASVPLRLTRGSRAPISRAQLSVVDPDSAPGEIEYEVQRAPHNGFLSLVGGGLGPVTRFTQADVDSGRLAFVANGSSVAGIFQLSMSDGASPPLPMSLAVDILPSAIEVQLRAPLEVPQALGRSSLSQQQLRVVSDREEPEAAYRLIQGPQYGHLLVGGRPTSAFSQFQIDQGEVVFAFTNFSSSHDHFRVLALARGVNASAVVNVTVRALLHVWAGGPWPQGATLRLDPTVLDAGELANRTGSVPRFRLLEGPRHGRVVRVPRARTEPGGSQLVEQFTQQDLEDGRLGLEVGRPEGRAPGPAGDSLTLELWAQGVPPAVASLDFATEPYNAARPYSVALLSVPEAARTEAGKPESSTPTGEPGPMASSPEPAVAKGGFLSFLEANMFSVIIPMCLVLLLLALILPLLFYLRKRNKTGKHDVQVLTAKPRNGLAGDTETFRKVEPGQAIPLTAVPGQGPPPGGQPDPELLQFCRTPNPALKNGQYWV

B1: BA5 biotinylated peptide-H-2Kb-anti-MCSP scFv fusion protein, 20 amino acid β2M-MHC linker (peptide-MHC)
chain: RTYTYEKLGGGGSGGGGSGGGGSIQKTPQIQVYSRHPPENGKPNILNCYVTQFHPPHIEIQMLKNGKKIPKVEMSDMSFSKDWSFYILAHTEFTPTETDTYACRVKHVSMAEPKTVYWDRDMGGGGSGGGGSGGGGSGGGGSGPHSLRYFVTAVSRPGLGEPRYMEVGYVDDTEFVRFDSDAENPRYEPRARWMEQEGPEYWERETQKAKGNEQSFRVDLRTLLGYYNQSKGGSHTIQVISGCEVGSDGRLLRGYQQYAYDGCDYIALNEDLKTWTAADMAALITKHKWEQAGEAERLRAYLEGTCVEWLRRYLKNGNATLLRTDSPKAHVTHHSRPEDKVTLRCWALGFYPADITLTWQLNGEELIQDMELVETRPAGDGTFQKWASVVVPLGKEQYYTCHVYHQGLPEPLTLRWEPPPSTASGGQVKLQQSGGGLVQPGGSMKLSCVVSGFTFSNYWMNWVRQSPEKGLEWIAEIRLKSNNFGRYYAESVKGRFTISRDDSKSSAYLQMINLRAEDTGIYYCTSYGNYVGHYFDHWGQGTTVTVSSGGGGSGGGGSGGGGSDIELTQSPKFMSTSVGDRVSVTCKASQNVDTNVAWYQQKPGQSPEPLLFSASYRYTGVPDRFTGSGSGTDFTLTISNVQSEDLAEYFCQQYNSYPLTFGGGTKLEIKRAHHHHHHGLNDIFEAQKIEWH
notes: also called BA-biotin fusion molecule; biotinylated ScFv-MHC molecule
B1: binds.
